This is an account of results in publication PMC5240623.

pKd: −log10 of the molar value.

The target of series [1] is DmMBD2/3 coiled-coil domain (amino acids 309–339), thioredoxin fusion (D. melanogaster). Briefly: ITC; fusion peptides left uncleaved; 50 mM Hepes pH 7.4, 150 mM NaCl, 298 K; MicroCal Auto-iTC200, 20–24 injections; HsMBD2 (1.8 mM), EmGATAD2A/B (2.74 mM), DmGATAD2A/B (2.5 mM) injected into HsGATAD2A (100 μM), EmMBD2/3 (270 μM), DmMBD2/3 (250 μM); one-site binding model.
In series [2] the test system is EmMBD2/3a coiled-coil domain (amino acids 324–354), thioredoxin fusion. The series can be described thus: AUC; sedimentation velocity, 40,000 rpm, 293 K, 20 mM Tris pH 8.0, 150 mM NaCl; thioredoxin fusions left uncleaved; each peptide in isolation and a 100 μM mixture.
Series [3] has as its target EmMBD2/3a coiled-coil domain (amino acids 324–354), thioredoxin fusion (E. muelleri). Briefly: ITC; fusion peptides left uncleaved; 50 mM Hepes pH 7.4, 150 mM NaCl, 298 K; MicroCal Auto-iTC200, 20–24 injections; HsMBD2 (1.8 mM), EmGATAD2A/B (2.74 mM), DmGATAD2A/B (2.5 mM) injected into HsGATAD2A (100 μM), EmMBD2/3 (270 μM), DmMBD2/3 (250 μM); one-site binding model.
The target in series [4] is HsGATAD2A coiled-coil domain, uncleaved fusion peptide (human) (UniProt Q86YP4). The description is as above.
Sequence of HsGATAD2A coiled-coil domain, uncleaved fusion peptide (human) (Q86YP4 137-178): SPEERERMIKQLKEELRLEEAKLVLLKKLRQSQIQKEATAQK
Series [5] deals with EmMBD2/3 MBD (Ephydatia muelleri). Briefly: SPR. To be noted: SPR: 10 mM HEPES pH 7.4, 50 mM NaCl, 3 mM MgCl2, 0.1 mM EDTA, 1 mM DTT, 0.05% polysorbate 20, temperature not stated, NMR conditions not in material.
For series [6], the target named is EmGATAD2A/B coiled-coil domain (amino acids 58–100), thioredoxin fusion (E. muelleri). Briefly: ITC; fusion peptides left uncleaved; 50 mM Hepes pH 7.4, 150 mM NaCl, 298 K; MicroCal Auto-iTC200, 20–24 injections; HsMBD2 (1.8 mM), EmGATAD2A/B (2.74 mM), DmGATAD2A/B (2.5 mM) injected into HsGATAD2A (100 μM), EmMBD2/3 (270 μM), DmMBD2/3 (250 μM); one-site binding model. On the technique in general: Isothermal titration calorimetry measures the heat released or taken up as one component is titrated into another.

Sequence of HsMBD2 coiled-coil domain, uncleaved fusion peptide (Q9UBB5 360-393): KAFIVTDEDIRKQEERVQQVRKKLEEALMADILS
Sequence of DmMBD2/3 coiled-coil domain (amino acids 309–339), thioredoxin fusion (D. melanogaster) (main, as listed by the source): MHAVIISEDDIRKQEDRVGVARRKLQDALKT

The term pKd denotes the Kd on a negative log10 scale, so that one unit is a factor of ten. Higher therefore signals a small Kd. What is called stoichiometry N is a count of units in the complex or per binding partner. As for “DmGATAD2A/B coiled-coil domain (amino acids 183–223), thioredoxin fusion (domain or fragment)”, in series [1], the pKd is 5.13, the dH was -27.6 kcal/mol and the stoichiometry N was 1.

As to “EmGATAD2A/B coiled-coil domain (amino acids 58–100), thioredoxin fusion”, the “percent of heterodimeric species in a 100 μM mixture” value in series [2] is reported as “heterodimeric (45.1 kDa, 58.1%)”.

Take “EmGATAD2A/B coiled-coil domain (amino acids 58–100), thioredoxin fusion (domain or fragment)”: in series [3], the pKd is 5.04, the dH is -9.8 kcal/mol and the stoichiometry N came to 0.8.

In the case of “EmMBD2/3a coiled-coil domain (amino acids 324–354), thioredoxin fusion (domain or fragment)”, in series [4], the pKd was 6.42, the dH is -8.99 kcal/mol and the stoichiometry N was 1.3.

For the substance “GAGGCGCTCGGCGGCAG (double strand) [CpG(x3) 17 bp, 3'-biotin]”, in series [5], the pKd was 4.19.

In turn, “GAGGCGCTCGGCGGCAG (double strand) [mCpG 17 bp, 3'-biotin]” had a negative logarithm of the Kd (pKd) in series [5] (5-methyl-C at C9 of strand 1 and C8 of strand 2 (central CpG), two other CpGs unmethylated) of 6.37.

With “HsMBD2 coiled-coil domain, uncleaved fusion peptide (from UniProt Q9UBB5 360-393) (domain or fragment)”, in series [6], the pKd was 5.89, the dH was -8.92 kcal/mol and the stoichiometry N came to 1.1.
